21 molecules from patent US20210380703A1 can be followed below.

B1: 369_H02 (antibody, V domains shown)
VH: EVQLLESGGGLVQPGGSLRLSCAASGFTFDDYSMNWVRQAPGKGLEWVSNINYNGGYKSYADSVKGRFTISRDNSKNTLYLQMNSLRAEDTAVYYCARGATWHDTHLDYWGQGTLVTVSS
VL: DIQMTQSPSSLSASVGDRVTITCRASQSIISYLNWYQQKPGKAPKLLIYAATSRASGVPSRFSGSGSGTDFTLTISSLQPEDFATYYCQQSYDSPLTFGGGTKVEIK
B2: 369_H12 (antibody, V domains shown)
VH: EVQLLESGGGLVQPGGSLRLSCAASGFTFSSYSMNWVRQAPGKGLEWVAGINYNGGYKSYADSVKGRFTISRDNSKNTLYLQMNSLRAEDTAVYYCARGATWHDTHLDYWGQGTLVTVSS
VL: DIQMTQSPSSLSASVGDRVTITCRASQSIVTYVNWYQQKPGKAPKLVIYAATSRASGVPSRFSGSGSGTDFTLTISSLQPEDFATYYCQQSYDSPLTFGGGTKVEIK
B3: 371_B01 (antibody, V domains shown)
VH: EVQLLESGGGLVQPGGSLRLSCAASGFTFDSYSMNWVRQAPGKGLEWVSNINYNSGYTGYADSVKGRFTISRDNSKNTLYLQMNSLRAEDTAVYYCARGATWHDTHLDYWGQGTLVTVSS
VL: DIQMTQSPSSLSASVGDRVTITCRASQSILSYVNWYQQKPGKAPKLLIYAATSLASGVPSRFSGSGSGTDFTLTISSLQPEDFATYYCQQSYDLPLTFGGGTKVEIK
B4: 370_H04 (antibody, V domains shown)
VH: EVQLLESGGGLVQPGGSLRLSCAASGFTFSSYSMNWVRQAPGKGLEWVSNINYNGGYTGYADSVKGRFTISRDNSKNTLYLQMNSLRAEDTAVYYCARGATWHDTHLDYWGQGTLVTVSS
VL: DIQMTQSPSSLSASVGDRVTITCRASQSILSYVNWYQQKPGKAPKLLIYAATSRASGVPSRFSGSGSGTDFTLTISSLQPEDFATYYCQQSYDLPLTFGGGTKVEIK
B5: 371_E09 (antibody, V domains shown)
VH: EVQLLESGGGLVQPGGSLRLSCAASGFTFSDYSMNWVRQAPGKGLEWVSGINYNSGYTSYADSVKGRFTISRDNSKNTLYLQMNSLRAEDTAVYYCARGATWHDTHLDYWGQGTLVTVSS
VL: DIQMTQSPSSLSASVGDRVTITCRASQSILTYLNWYQQKPGKAPKLLIYAATSRASGVPSRFSGSGSGTDFTLTISSLQPEDFATYYCQQSYNSPLTFGGGTKVEIK
B6: 371_E12 (antibody, V domains shown)
VH: EVQLLESGGGLVQPGGSLRLSCAASGFTFDSYSMNWVRQAPGKGLEWVSGINYNSGYKSYADSVKGRFTISRDNSKNTLYLQMNSLRAEDTAVYYCARGATWHDTHLDYWGQGTLVTVSS
VL: DIQMTQSPSSLSASVGDRVTITCRASQSILSYLNWYQQKPGKAPKLLIYAATSLASGVPSRFSGSGSGTDFTLTISSLQPEDFATYYCQQSYDTPLTFGGGTKVEIK
B7: 370_E05 (antibody, V domains shown)
VH: EVQLLESGGGLVQPGGSLRLSCAASGFTFSSYGMNWVRQAPGKGLEWVSNINYNGGYKGYADSVKGRFTISRDNSKNTLYLQMNSLRAEDTAVYYCARGATWHDTHLDYWGQGTLVTVSS
VL: DIQMTQSPSSLSASVGDRVTITCRASQSISTYLNWYQQKPGKAPKLVIYAVTSRASGVPSRFSGSGSGTDFTLTISSLQPEDFATYYCQQSYNSPLTFGGGTKVEIK
B8: 370_D09 (antibody, V domains shown)
VH: EVQLLESGGGLVQPGGSLRLSCAASGFTFSDYSMNWVRQAPGKGLEWVSGINYNSGYTSYADSVKGRFTISRDNSKNTLYLQMNSLRAEDTAVYYCARGATWHDTHLDYWGQGTLVTVSS
VL: DIQMTQSPSSLSASVGDRVTITCRASQSIVTYLNWYQQKPGKAPKLVIYAATSRASGVPSRFSGSGSGTDFTLTISSLQPEDFATYYCQQSYDTPLTFGGGTKVEIK
B9: 371_C06 (antibody, V domains shown)
VH: EVQLLESGGGLVQPGGSLRLSCAASGFTFSSYSMNWVRQAPGKGLEWVSSINYNGGYTSYADSVKGRFTISRDNSKNTLYLQMNSLRAEDTAVYYCARGATWHDTHLDYWGQGTLVTVSS
VL: DIQMTQSPSSLSASVGDRVTITCRASQSISSYLNWYQQKPGKAPKLLIYAVTSRASGVPSRFSGSGSGTDFTLTISSLQPEDFATYYCQQSYDLPLTFGGGTKVEIK
B10: 370_B08 (antibody, V domains shown)
VH: EVQLLESGGGLVQPGGSLRLSCAASGFTFSDYSMNWVRQAPGKGLEWVANINYNGGYTGYADSVKGRFTISRDNSKNTLYLQMNSLRAEDTAVYYCARGATWHDTHLDYWGQGTLVTVSS
VL: DIQMTQSPSSLSASVGDRVTITCRASQSILSYLNWYQQKPGKAPKLLIYAASSLQSGVPSRFSGSGSGTDFTLTISSLQPEDFATYYCQQSYDSPLTFGGGTKVEIK
B11: 370_E04 (antibody, V domains shown)
VH: EVQLLESGGGLVQPGGSLRLSCAASGFTFSSYSMNWVRQAPGKGLEWVANINYNGGYKGYADSVKGRFTISRDNSKNTLYLQMNSLRAEDTAVYYCARGATWHDTHLDYWGQGTLVTVSS
VL: DIQMTQSPSSLSASVGDRVTITCRASQSILTYLNWYQQKPGKAPKLLIYAVTSLHSGVPSRFSGSGSGTDFTLTISSLQPEDFATYYCQQSYETPLTFGGGTKVEIK
B12: 370_G08 (antibody, V domains shown)
VH: EVQLLESGGGLVQPGGSLRLSCAASGFTFSDYSMNWVRQAPGKGLEWVAGINYNGGYTGYADSVKGRFTISRDNSKNTLYLQMNSLRAEDTAVYYCARGATWHDTHLDYWGQGTLVTVSS
VL: DIQMTQSPSSLSASVGDRVTITCRASQSILTYLNWYQQKPGKAPKLVIYAATSRASGVPSRFSGSGSGTDFTLTISSLQPEDFATYYCQQSYESPLTFGGGTKVEIK
B13: 370_H06 (antibody, V domains shown)
VH: EVQLLESGGGLVQPGGSLRLSCAASGFTFDDYSMNWVRQAPGKGLEWVANINYNGGYTGYADSVKGRFTISRDNSKNTLYLQMNSLRAEDTAVYYCARGATWHDTHLDYWGQGTLVTVSS
VL: DIQMTQSPSSLSASVGDRVTITCRASQSILTYLNWYQQKPGKAPKLLIYAATSRASGVPSRFSGSGSGTDFTLTISSLQPEDFATYYCQQSYETPLTFGGGTKVEIK
B14: 370_F02 (antibody, V domains shown)
VH: EVQLLESGGGLVQPGGSLRLSCAASGFTFDSYGMNWVRQAPGKGLEWVANINYNGGYTGYADSVKGRFTISRDNSKNTLYLQMNSLRAEDTAVYYCARGATWHDTHLDYWGQGTLVTVSS
VL: DIQMTQSPSSLSASVGDRVTITCRASQSILSYLNWYQQKPGKAPKLLIYAVTSRHSGVPSRFSGSGSGTDFTLTISSLQPEDFATYYCQQSYDSPLTFGGGTKVEIK
B15: 371_E08 (antibody, V domains shown)
VH: EVQLLESGGGLVQPGGSLRLSCAASGFTFSSYSMNWVRQAPGKGLEWVSNINYNSGYKSYADSVKGRFTISRDNSKNTLYLQMNSLRAEDTAVYYCARGATWHDTHLDYWGQGTLVTVSS
VL: DIQMTQSPSSLSASVGDRVTITCRASQSIVSYVNWYQQKPGKAPKLVIYAATSRHSGVPSRFSGSGSGTDFTLTISSLQPEDFATYYCQQSYDLPLTFGGGTKVEIK
B16: 370_F12 (antibody, V domains shown)
VH: EVQLLESGGGLVQPGGSLRLSCAASGFTFSDYSMNWVRQAPGKGLEWVANINYNGGYTGYADSVKGRFTISRDNSKNTLYLQMNSLRAEDTAVYYCARGATWHDTHLDYWGQGTLVTVSS
VL: DIQMTQSPSSLSASVGDRVTITCRASQSILSYLNWYQQKPGKAPKLLIYAASSLQSGVPSRFSGSGSGTDFTLTISSLQPEDFATYYCQQSYDSPLTFGGGTKVEIK
B17: 370_F01 (antibody, V domains shown)
VH: EVQLLESGGGLVQPGGSLRLSCAASGFTFSSYGMNWVRQAPGKGLEWVSNINYNGGYTSYADSVKGRFTISRDNSKNTLYLQMNSLRAEDTAVYYCARGATWHDTHLDYWGQGTLVTVSS
VL: DIQMTQSPSSLSASVGDRVTITCRASQSIVSYLNWYQQKPGKAPKLLIYAATSRASGVPSRFSGSGSGTDFTLTISSLQPEDFATYYCQQSYDSPLTFGGGTKVEIK
B18: 369_H08 (antibody, V domains shown)
VH: EVQLLESGGGLVQPGGSLRLSCAASGFTFSSYSMNWVRQAPGKGLEWVAGINYNSGYKSYADSVKGRFTISRDNSKNTLYLQMNSLRAEDTAVYYCARGATWHDTHLDYWGQGTLVTVSS
VL: DIQMTQSPSSLSASVGDRVTITCRASQSILSYVNWYQQKPGKAPKLVIYAATSLASGVPSRFSGSGSGTDFTLTISSLQPEDFATYYCQQSYESPLTFGGGTKVEIK
B19: 370_C07 (antibody, V domains shown)
VH: EVQLLESGGGLVQPGGSLRLSCAASGFTFSSYSMNWVRQAPGKGLEWVANINYNGGYKSYADSVKGRFTISRDNSKNTLYLQMNSLRAEDTAVYYCARGATWHDTHLDYWGQGTLVTVSS
VL: DIQMTQSPSSLSASVGDRVTITCRASQSILSYLNWYQQKPGKAPKLLIYAATSRHSGVPSRFSGSGSGTDFTLTISSLQPEDFATYYCQQSYESPLTFGGGTKVEIK
B20: 371_C07 (antibody, V domains shown)
VH: EVQLLESGGGLVQPGGSLRLSCAASGFTFDSYGMNWVRQAPGKGLEWVSNINYNGGYTGYADSVKGRFTISRDNSKNTLYLQMNSLRAEDTAVYYCARGATWHDTALDYWGQGTLVTVSS
VL: DIQMTQSPSSLSASVGDRVTITCRASQSILSYLNWYQQKPGKAPKLLIYAATSLASGVPSRFSGSGSGTDFTLTISSLQPEDFATYYCQQSYDTPLTFGGGTKVEIK
B21: 370_D03 (antibody, V domains shown)
VH: EVQLLESGGGLVQPGGSLRLSCAASGFTFSSYSMNWVRQAPGKGLEWVASINYNGGYTSYADSVKGRFTISRDNSKNTLYLQMNSLRAEDTAVYYCARGATWHDTHLDYWGQGTLVTVSS
VL: DIQMTQSPSSLSASVGDRVTITCRASQSIITYLNWYQQKPGKAPKLLIYAATSRASGVPSRFSGSGSGTDFTLTISSLQPEDFATYYCQQSYDLPLTFGGGTKVEIK

The target of the experiment is Human Fc (human). The experiment is described as follows: ELISA; negative control.
For the molecule B1, the optical density amounted to 0.408 OD.
The molecule B2 came in with an optical density of 0.414 OD.
Molecule B3 showed an optical density of 0.464 OD.
Molecule B4 registered an optical density of 0.596 OD.
In the case of B5, the optical density was found to be 0.306 OD.
Take B6: the optical density was 0.398 OD.
For the molecule B7, the optical density is 0.427 OD.
B8 showed an optical density of 0.287 OD.
Molecule B9 had an optical density of 0.308 OD.
The figure for B10 is 0.302 OD.
The value for B11 was 0.292 OD; that for B12 was 0.364 OD.
The figure for B13 is 0.358 OD; for B14 it is 0.376 OD; for B15 it is 0.251 OD.
As for B16, the optical density came out at 0.457 OD.
B17 showed an optical density of 0.407 OD.
The molecule B18 came in with an optical density of 0.389 OD.
The figure for B19 is 0.316 OD.
The figure for B20 is 0.287 OD.
The value for B21 was 0.57 OD.
